Source: PMC11150392, “Structure and mechanism of the K^+/H^+ exchanger KefC” (Nature Communications, 2024)

B1: KefC WT*-GFP fusion [Escherichia coli] / itself (parent)
chain: MDSHTLIQALIYLGSAALIVPIAVRLGLGSVLGYLIAGCIIGPWGLRLVTDAESILHFAEIGVVLMLFIIGLELDPQRLWKLRAAVFGCGALQMVICGGLLGLFCMLLGLRWQVAELIGMTLALSSTAIAMQAMNERNLMVTQMGRSAFAVLLFQDIAAIPLVAMIPLLATSSASTTMGAFALSALKVAGALVLVVLLGRYVTRPALRFVARSGLREVFSAVALFLVFGFGLLLEEVGLSMAMGAFLAGVLLASSEYRHALESDIEPFKGLLLGLFFIGVGMSIDFGTLLENPLRIVILLLGFLIIKIAMLWLIARPLQVPNKQRRWFAVLLGQGSEFAFVVFGAAQMANVLEPEWAKSLTLAVALSMAATPILLVILNRLEQSSTEEAREADEIDEEQPRVIIAGFGRFGQITGRLLLSSGVKMVVLDHDPDHIETLRKFGMKVFYGDATRMDLLESAGAAKAEVLINAIDDPQTNLQLTEMVKEHFPHLQIIARARDVDHYIRLRQAGVEKPERETFEGALKTGRLALESLGLGPYEARERADVFRRFNIQMVEEMAM

Variants of: B1
Assay: FSEC of DDM solubilized membranes after heating
Set-up: unit not given here
Conditions: with itself; 10 mins at 60 °C; 1 mM AMP; read off a plot

Point of comparison: chain 1 R401A, screen value 74. Against it:
- chain 1 E465A — lower, 5.5
- chain 1 H259A — lower, 6.5
- chain 1 K81A — lower, 10
- chain 1 N135A — higher, 89
- chain 1 R146A — higher, 86
- chain 1 R543A — lower, 2.5
